Experimental data as given in patent US8058046B2, “Sesquiterpene synthases from patchouli” (Firmenich SA, priority 2003, dated 2011).

Columns and labels:
[1] = Enzyme assay: conversion of FPP to sesquiterpenes by recombinant sesquiterpene synthase, GC / GC-MS analysis; format: biochemical; settings: FPP as substrate; for main (major) sesquiterpene product formed: crude protein extract from E. coli expressing the recombinant synthase, GC-MS and retention index
Experimental: In a standard protein expression experiment, the expression plasmids containing the sesquiterpene synthase cDNAs as well as the empty plasmid (for negative control) were transformed into the BL21(DE3) or the BL21 STAR™ (DE3) E. coli cells (Novagen). Single colonies of transformed E. coli were used to inoculate 5 ml LB medium. After 5 to 6 hours of incubation at 37° C., the cultures were transferred to a 20° C. incubator and left 1 hour for equilibration. Expression of the protein was then induced by addition of 0.5 mM IPTG and the culture incubated over-night at 20° C. The next day, the cells were collected by centrifugation, resuspended in 0.5 ml Extraction Buffer (50 mM MOPSO pH 7, 5 mM DTT, 10% glycerol) and sonicated 3 times 30 s. The cell debris were sedimented by centrifugation 30 min at 18,000 g and the supernatant containing the soluble proteins was recovered. The expression of the sesquiterpene synthases was evaluated by separation of the protein extract on a SDS-PAGE, staining with coomassie blue and comparison to protein extract obtained from cells transformed with the empty plasmid.
The enzymatic assays were performed in Teflon sealed glass tubes using 50 to 100 μl of protein extract in a final volume of 1 mL Extraction Buffer supplemented with 15 mM MgCl2 and 100 to 250 μM FPP (Sigma). The medium was overlaid with 1 ml pentane and the tubes incubated over-night at 30° C. The pentane phase, containing the sesquiterpenes, was recovered and the medium extract with a second volume of pentane. The combined pentane fractions were concentrated under nitrogen and analyzed by Gas Chromatography on a on a Hewlett-Packard 6890 Series GC system using a 0.25 mm inner diameter by 30 m SPB-1 (Supelco) capillary column. The carrier gas was He at constant flow of 1.6 ml/min. Injection was done in splitless mode with the injector set at 200° C. and the oven programmed from 100° C. (0 min hold) at 7.5° C./min to 200° C. (0 min hold) followed by 20° C./min to 280° C. (2 min hold). Detection was made with a flame ionization detector. Compound identification was based on retention time identity with authentic standards when available. For confirmation of the products identities, samples were analyzed by combined capillary GC-MS using a Hewlett-Packard 6890 GC-quadrupole mass selective detector system, equipped with a 0.25 mm inner diameter by 30 m SPB-1 (Supelco) capillary column. The oven was programmed from 80° C. (0 min hold) to 280° C. at 7° C. at a constant flow of 1.5 ml/min He. The spectra were recorded at 70 eV with an electron multiplier voltage of 2200V. Retention time of the enzyme products were compared to the retention time of authentic standard, or the Kovats retention index was calculated and compared to published data (Joulain, D., and König, W. A. The Atlas of Spectral Data of Sesquiterpene Hydrocarbons, EB Verlag, Hamburg, 1998).
For the biochemical characterization of the sesquiterpene synthases for which the full-length cDNA was isolated, the cDNA was ligated into appropriate expression plasmids. This plasmid were used to transform E coli cells and after expression of the recombinant proteins, the E coli proteins were extracted and used to evaluate the biochemical conversion of FPP to sesquiterpene compounds (see Examples 5 and 6).

BL21 (DE3) E. coli cells = experiment: In vivo sesquiterpene production assay in E. coli from the endogenous FPP pool; format: cell-based; settings: E. coli cells expressing the synthase, 24 hours after 1 mM IPTG, pentane extract, GC / GC-MS; none with empty plasmid
Experimental: Experiments were performed using E. coli, to test the ability of the patchoulol synthase to synthesise, in vivo, sesquiterpenes from the endogenous FPP pool. Typical experiments for evaluation of in vivo sesquiterpene production are performed as follows. The expression plasmid containing the sesquiterpene synthase cDNA are transformed in BL21 (DE3) E. coli cells. Single colonies of transformed cells are used to inoculate 5 mL LB medium supplemented with the appropriate antibiotics. After 5 to 6 hours of incubation at 37° C., the culture were use to inoculate 100 ml TB medium supplemented with the appropriate antibiotics and the culture was incubated for 2 hours at 20° C. in a 250 mL shake flask. After 2 hours incubation, expression of the protein was induced by the addition of 1 mM IPTG. The cultures were left 24 hours and were then directly extracted twice with one volume of pentane. The two solvent fractions were recovered, combined and concentrated to 0.5 mL prior to GC-MS analysis. […] Patchoulol could be clearly detected by GC analysis of the culture extract, and no patchoulol was detected with cells transformed with the empty plasmid. The identity of the product could be confirmed by GC-MS, but the amount of sesquiterpene produced was relatively low and estimation of the quantities was not possible.

[2] = estimated by GC (flame ionization detection)

B1: PatTpsB15: another recombinant (−)-germacrene D synthase from patchouli, cDNA SEQ ID NO:4 (protein)
chain: MDLNEITSSSRPLANYHPNVWGDRFLLHEPEFTCQAGEKQLVEELKEEVRRELKEASNDYLRQLKMVDAIQRLGIEYLFEEEIDEALRNLLAKFENYCKDNHDMYATALSFRLLRQHGYKVSCEVFDKFKDGEDGFKVEEVMAVLELFEATHMRIHGEDVLDQAFVFTRNYLQSIHATLSNPIAKQVHNALNGYSCRRGMPRIEARKYIPIYEEYGCHHKALLKLAKLDFNLLQSMHKRELTQLYRWWKDLEMPTKLPYIRDRLVETYFWDMGFYFEPQYALARNILVKVQCLVSIFDDTFDAYGAFKELQLFKDAIDRWSISCLDELPEYMQIIYKLVLDVFEEIESHMIKQGTSYRLDYAREAIKIVIGGYFDEAKWREEEYKPRMEEYMKVATKSAAYLTLIIVSFVGMKNDIATPQAFQWVLSEPQIITASLALARLSNDLVGIEFEKERKYIATAVELYEEEHKVSKEEAVLELRHETESAWKEINEALLEPTTFATPILDRILNSARVLEVFYDKTDRYTHVDLELQNIIAQLYIHPIP
modifications: Pogostemon cablin
Which “main (major) sesquiterpene product formed” value [1] does the source give for B1 here?
The value was “(−)-germacrene D”.

And the “sesquiterpene synthase activity in recombinant E. coli protein extract” value (“sesquiterpene synthase activity” below) ([1]; crude protein extract)?
Its value is “relatively good metabolization of FFP”.

B2: PatTps177: recombinant patchoulol synthase from patchouli, cDNA SEQ ID NO:5 (protein)
chain: MELYAQSVGVGAASRPLANFHPCVWGDKFIVYNPQSCQAGEREEAEELKVELKRELKEASDNYMRQLKMVDAIQRLGIDYLFVEDVDEALKNLFEMFDAFCKNNHDMHATALSFRLLRQHGYRVSCEVFEKFKDGKDGFKVPNEDGAVAVLEFFEATHLRVHGEDVLDNAFDFTRNYLESVYATLNDPTAKQVHNALNEFSFRRGLPRVEARKYISIYEQYASHHKGLLKLAKLDFNLVQALHRRELSEDSRWWKTLQVPTKLSFVRDRLVESYFWASGSYFEPNYSVARMILAKGLAVLSLMDDVYDAYGTFEELQMFTDAIERWDASCLDKLPDYMKIVYKALLDVFEEVDEELIKLGAPYRAYYGKEAMKYAARAYMEEAQWREQKHKPTTKEYMKLATKTCGYITLIILSCLGVEEGIVTKEAFDWVFSRPPFIEATLIIARLVNDITGHEFEKKREHVRTAVECYMEEHKVGKQEVVSEFYNQMESAWKDINEGFLRPVEFPIPLLYLILNSVRTLEVIYKEGDSYTHVGPAMQNIIKQLYLHPVPY
modifications: Pogostemon cablin
Which “amount of (+)-germacrene A among sesquiterpenes produced” value ([1]; estimated by GC (FID), detected as the thermal rearrangement product β-element) does the source give for B2 here?
Its value is 1.6%.

What about the “amount of (Z,E)-α-farnesene among sesquiterpenes produced” value [1, 2] of the same molecule?
The value was 1.35%.

What about the “amount of (trans)-alpha-farnesene among sesquiterpenes produced” value [1, 2] of the same molecule?
Its value is 3%.

And the “amount of (−)-patchoulol among sesquiterpenes produced” value [1, 2]?
Its value is 39.1%.

What about the “amount of alpha-guaiene among sesquiterpenes produced” value [1, 2] of the same molecule?
The value was 14%.

And the “amount of alpha-humulene among sesquiterpenes produced” value [1, 2]?
Its value is 1.1%.

What about the “amount of seychellene among sesquiterpenes produced” value [1, 2] of the same molecule?
Its value is 4%.

And the “amount of trans-β-caryophyllene among sesquiterpenes produced” value [1, 2]?
The value was 4.5%.

And the “amount of trans-β-farnesene among sesquiterpenes produced” value [1, 2]?
The value was 3%.

And the “amount of α-bulnesene among sesquiterpenes produced” value [1, 2]?
Its value is 8.6%.

And the “amount of α-patchoulene among sesquiterpenes produced” value [1, 2]?
The value was 8.9%.

What about the “amount of γ-patchoulene among sesquiterpenes produced” value [1, 2] of the same molecule?
The value was 2.5%.

And the “amount of δ-patchoulene among sesquiterpenes produced” value [1, 2]?
Its value is 2.1%.

What about the “main (major) sesquiterpene product formed” value [1] of the same molecule?
The value was “(−)-patchoulol”.

What about the “number of other sesquiterpenes produced besides the main product” value ([1]; crude protein extract, GC-MS) of the same molecule?
The value was “at least 18”.

And the “in vivo production of patchoulol from endogenous FPP” value (BL21 (DE3) E. coli cells)?
The value was “produced patchoulol”.

B3: PatTpsBF2: recombinant (−)-germacrene D synthase from patchouli, cDNA SEQ ID NO:2 (protein)
chain: MELKNQSVAIISSNASRPLAHYHPDVWGDRFLLYKPNPSSEAGQKPVIEELKQQVRSELKEASNDYMRQLKMVDAIQRLGIESLFEEDIDNALKNLSENFDDYCKDKHDLYAIALSFRLLRQHGYRISCDVFDKLKDGEDGFKVPPSDEALAVVELLEATHLRIHGEVVLDRAFVFARIHLESIEANLNNPVAKQVHNALYGYSNRRGMQQVEARKYIPIYEQYASHHQGLLKLATLNFNLQQTMHKRELSELSRWYRDLEVPTMLPFARQRLVETYFWDAGVVFEPENDVARMILVKVQCLISFLDDTFDAYGSFEELQLFTDAINTWDVSCLDQLPDYMKIIYKALLGVFEVIEKLMIKQGTLYRLNYAKEAMKIVVGGYFVEAKWREEKSKPTTQEYMQVATKSAGYMTLIITSFLGMEANIATKEAFDWVLSEPDVMKAAITLARLTNDIVGIELEKERKHIATAVEVYEDEHKLSMQEAMVEIKNQIESGWKTINEAFLRPTKFPTPILYRILNYCRVLEVIYDKSDRYTHVDPALQDIIKQLYIHPIP
modifications: Pogostemon cablin
For B3, which “main (major) sesquiterpene product formed” value [1] is on record?
The value was “(−)-germacrene D”.

And the “sesquiterpene synthase activity” value ([1]; crude protein extract)?
The value was “could be detected”.

B4: PatTpsCF2: recombinant (+)-germacrene A synthase from patchouli, cDNA SEQ ID NO:3 (protein)
chain: MAVQISETVRPFANFSPNPSLWGDQFINHKSKTQQISRIYLEEIEGLKNEVKCMLTSTPEGKMADTVNLIDTLERLGVSYHFEKEIEEKMKHLFNLIKADNYKDHEGCDLYTDALHFRLFRQHGYPISSGIFNKWMDGNGKFKESIKSDAKGLLSLYEACCLRTHGDTLLDEALVFATASLKSMAANLASPLRKQVEHALFQHLHFGIPRVEARHFITFYEEEEHKNEMLLRFAKLDFNALQALHKEELSEISKWWKDLDLISKLPYARDRVVESYFWAVGVYYQPKYSRARIMLTKTIAMTAILDDTYDSYGTLEELDVLTKAIERWDIKEINGLPEYIKGFYKQVLKLYQQLEEELAKEGRSYAVYYAIEACKELARSYAVEAKWFKKGYLPGFEEYLINSLVTSTAGYLNIISFFGVESVTKEDFEWFSKKPRIAVATQIITRVIDDIATYEVEKEKGQSATGIDCYMKEHGVSKEKAMQRFYEMSTNAWKDINEEGLSWPSSFSRDIFVQLRNFSRMVDVTYGKNEDGYSKPEKILKPLIIALFVDQIKL
modifications: Pogostemon cablin
For B4, which “main (major) sesquiterpene product formed” value [1] is on record?
Its value is “(+)-germacrene A”.

And the “sesquiterpene synthase activity” value ([1]; crude protein extract)?
The value was “easily detected”.

B5: PatTpsA: recombinant γ-curcumene synthase from patchouli (Pogostemon cablin), cDNA SEQ ID NO:1 (protein)
chain: MAAFTANAVDMRPPVITIHPRSKDIFSQFSLDDKLQKQYAQGIEALKEEARSMLMAAKSAKVMILIDTLERLGLGYHFEKEIEEKLEAIYKKEDGDDYDLFTTALRFRLLRQHQRRVPCSVFDKFMNKEGKFEEEPLISDVEGLLSLYDAAYLQIHGEHILQEALIFTTHHLTRIEPQLDDHSPLKLKLNRALEFPFYREIPIIYAHFYISVYERDDSRDEVLLKMAKLSYNFLQNLYKKELSQLSRWWNKLELIPNLPYIRDSVAGAYLWAVALYFEPQYSDVRMAIAKLIQIAAAVDDTYDNYATIREAQLLTEALERLNVHEIDTLPDYMKIVYRFVMSWSEDFERDATIKEQMLATPYFKAEMKKLGRAYNQELKWVMERQLPSFEEYMKNSEITSGVYIMFTVISPYLNSATQKNIDWLLSQPRLASSTAIVMRCCNDLGSNQRESKGGEVMTSLDCYMKQHGASKQETISKFKLIIEDEWKNLNEEWAATTCLPKVMVEIFRNYARIAGFCYKNNGDAYTSPKIVQQCFDALFVNPLRI
modifications: Pogostemon cablin
What does the source list for B5?
main (major) sesquiterpene product formed [1]: γ-curcumene; sesquiterpene synthase activity in recombinant E. coli protein extract ([1]; crude protein extract): low
